{"source": "paper PMC7608592", "about": "“Allomorphy as a mechanism of post-translational control of enzyme activity” (Nature Communications, 2020)", "key": {"[1]": {"target": "T1, β-phosphoglucomutase (βPGM) (Lactococcus lactis, UniProt P71447)", "T1 construct": "gene pgmB", "assay": "X-ray crystal structure at […] Å; NMR titration (1H15N-TROSY)", "assay_type": "binding"}, "[2]": {"tested_on": "O=P(O)(O)OC[C@H]1O[C@@H](OP(=O)(O)O)[C@H](O)[C@@H](O)[C@@H]1O", "assay": "purified protein", "details": "Mg2+ active site"}, "[3]": {"tested_on": "O=P(O)(O)O[C@@H]1O[C@H](CO)[C@@H](O)[C@H](O)[C@H]1O", "assay": "purified protein", "details": "Mg2+ active site"}, "[4]": {"target": "T1, β-phosphoglucomutase (βPGM)", "assay": "real-time NMR (A:F16BP complex observed); phosphorylating agent in coupled assay", "assay_type": "binding"}, "[5]": {"target": "T2, β-phosphoglucomutase (βPGM) (Lactococcus lactis, UniProt P71447, P146A)", "T2 construct": "gene pgmB", "assay": "NMR: phosphorylation of the purified enzyme (B^P formed) and turnover of F16BP", "assay_type": "biochemical"}}}
{"compound": "O=C(O)CC(O)(CC(=O)O)C(=O)O", "note": "[citrate]", "values": [{"measurement": "X-ray crystal structure at 2.1 Å; NMR titration (1H15N-TROSY)", "setting": "[1]", "value": "Citrate is coordinated in the active site by residues T16, H20, V47–R49 and A115–K117 and mimics substrate binding"}]}
{"compound": "β-phosphoglucomutase (βPGM) (Lactococcus lactis subsp. lactis Il1403; P146A)", "values": [{"measurement": "Km", "setting": "[2]", "value": "175 ± 3", "unit": "µM"}, {"measurement": "Km", "setting": "[3]", "value": "157 ± 3", "unit": "µM"}]}
{"compound": "β-phosphoglucomutase (βPGM) (Lactococcus lactis subsp. lactis Il1403)", "values": [{"measurement": "Km", "setting": "[2]", "value": "8.5 ± 0.3", "unit": "µM"}, {"measurement": "Km", "setting": "[3]", "value": "91 ± 4", "unit": "µM"}]}
{"compound": "O=P(O)(O)OC[C@H]1OC(O)(COP(=O)(O)O)[C@@H](O)[C@@H]1O", "note": "(mixture of isomers) [F16BP, fructose 1,6-bisphosphate]", "values": [{"measurement": "real-time NMR (A:F16BP complex observed); phosphorylating agent in coupled assay", "setting": "[4]", "value": "A minor population of the A:F16BP complex is also present"}, {"measurement": "NMR: phosphorylation of the purified enzyme (B^P formed) and turnover of F16BP", "setting": "[5]", "value": "On addition of F16BP to βPGMP146A, the two dominant species observed are conformer B and B^P"}]}
